# From publication PMC3923783, “Competitive and Cooperative Interactions Mediate RNA Transfer from Herpesvirus Saimiri ORF57 to the Mammalian Export Adaptor ALYREF”
# B1: 14merS (ssRNA)
# RNA: CAGUCGCGAAGAGG
# B2: 7merN (ssRNA)
# RNA: CAGUCGC
# B3: 7merS end-labeled (ssRNA)
# RNA: GAAGAGG
# B4: 7merS (ssRNA)
# RNA: GAAGAGG
# Assays:
# ORF57 8-120 [1] = molecular target: T1, ORF57 8-120 (Herpesvirus saimiri, UniProt P13199 8-120); experiment: intrinsic Trp fluorescence titration; Fluorescence: 20 mM phosphate pH 6.2, 50 mM NaCl, 50 mM L-Arg+L-Glu, 5 mM EDTA, 1 mM TCEP (temperature not stated); NMR: 20 mM phosphate pH 6.2, 50 mM NaCl, 50; details: protein: recombinant
# T1 sequence (P13199 8-120): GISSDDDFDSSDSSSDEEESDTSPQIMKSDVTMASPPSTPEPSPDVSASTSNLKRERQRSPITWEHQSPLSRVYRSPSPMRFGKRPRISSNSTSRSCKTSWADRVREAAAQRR
# [2] = molecular target: ORF57 8-120;ALYREF 1-155 (REF2-I) (Herpesvirus saimiri;mouse, UniProt P13199;Q9JJW6 8-120;1-155, |); experiment: intrinsic Trp fluorescence titration; RNA into preformed 1:1 ORF57-ALYREF complex, 10 uM; apparent macroscopic Kd; Fluorescence: 20 mM phosphate pH 6.2, 50 mM NaCl, 50 mM L-Arg+L-Glu, 5 mM EDTA, 1 mM TCEP (temperature not stated); NMR: 20 mM phosphate pH 6.2, 50 mM NaCl, 50; details: protein: recombinant;recombinant; tags: ;; copies: 1;1
# Sequence of ORF57 8-120;ALYREF 1-155 (REF2-I) (P13199 8-120, chain 1 of 2): as the sequence (P13199 8-120) above
# Sequence of ORF57 8-120;ALYREF 1-155 (REF2-I) (Q9JJW6 1-155, chain 2 of 2): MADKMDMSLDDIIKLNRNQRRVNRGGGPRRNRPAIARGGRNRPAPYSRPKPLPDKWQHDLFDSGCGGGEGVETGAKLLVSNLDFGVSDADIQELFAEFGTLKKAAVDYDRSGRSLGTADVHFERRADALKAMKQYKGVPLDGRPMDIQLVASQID
# His-ORF57 8-120 WT = His-ORF57 8-120 WT (Herpesvirus saimiri, UniProt P13199 8-120); experiment: UV cross-linking; Fluorescence: 20 mM phosphate pH 6.2, 50 mM NaCl, 50 mM L-Arg+L-Glu, 5 mM EDTA, 1 mM TCEP (temperature not stated); NMR: 20 mM phosphate pH 6.2, 50 mM NaCl, 50; details: protein: recombinant; tags: His6; label: radioactive end label
# Sequence of His-ORF57 8-120 WT (P13199 8-120): as the sequence (P13199 8-120) above
# ORF57 8-120 [3] = molecular target: T1, ORF57 8-120; experiment: NMR (HSQC titration, saturation transfer); aa64-120 broadened beyond detection at 1:1; Fluorescence: 20 mM phosphate pH 6.2, 50 mM NaCl, 50 mM L-Arg+L-Glu, 5 mM EDTA, 1 mM TCEP (temperature not stated); NMR: 20 mM phosphate pH 6.2, 50 mM NaCl, 50; details: protein: recombinant
binder,measurement,setting,value
B1,Kd,ORF57 8-120 [1],7.57 ± 0.06 µM
same,Kd,[2],1550 ± 240 nM
B2,Kd,ORF57 8-120 [1],38.8 ± 0.6 µM
B3,binding result,His-ORF57 8-120 WT,binds
B4,binding result,ORF57 8-120 [3],binds
